Reference: the nanobody polyreactivity screen of Harvey et al. (2022)

Assay: yeast display, Sf9 membrane polyspecificity reagent, FACS + sequencing; frameworks hold sequencing errors
Summary of the method: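 Synthetic nanobody libraries on Saccharomyces cerevisiae BJ5465 were galactose-induced for 36–48 hours, stained 1 hour at 4 °C with 10% biotinylated, detergent-solubilized Sf9 membrane reagent and enriched on streptavidin microbeads. FACS then separated cells into low and high (top ~1%) gates by anti-HA (expression) and streptavidin (reagent binding) fluorescence. Genes were colony-PCR amplified, MiSeq 2 × 250 sequenced and CDR-length filtered. A clone's polyreactivity label is that of its gate of origin.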

QVQHVESGGGLVQAVGSLRLSCSASGITFHYYTMGWYRQAPGKEREFVAAISKSGGRTYYADSVKGRFTISRDKAKNTVYLQMNSLKPEDTAVYYCAGLYYFNGDYWGEGTQVTVSS
polyreactivity (PSR sort gate): high polyreactivity

QVQLVESGGGLVQAGGSLRLSCAASGMIFKFYDMGWYRQAPGKEREWVASISWSGGRTYYADSVKGRFTISRDNAKNTVYLQMNSLKPEDTAVYYCAAGRYYGYGYWGQGTQVTVSS
polyreactivity (PSR sort gate): high polyreactivity

QVQLVESGGGLVQAGGSLRLSCAASGRTFPYKAMGWYRQAPGKERELVAVISSGGGRTYYADSVKGRFTISRDNAKNTVYLQMNSLKPEDTAVYYCNKGGYAIRYDYYWGQGTQVTVSS
polyreactivity (PSR sort gate): high polyreactivity

QVQLVESGGGLVQAGGSLRLSCAASGSISGLYAMGWYRQATGKERELVAAITFRDGTTSYADSVKGRFTISRDNAKNTVYLQMNSLKPEDTAVYYCAAVDRDSNSSVPTLDHWGQGTQVTVSS
polyreactivity (PSR sort gate): low polyreactivity

QVQLVESGGGLVQAGGSLRLSCAASGSILGTYAMGWTIQAPGKERELVAAISSSGRTSYADSEKGRFTISRDNAKNTVYLQMNSLKPEDTAVYYCNASNYIVLINDPDAAPWLYDYWGQVTQVTVSS
polyreactivity (PSR sort gate): low polyreactivity

QDQLVETGGGLVQAGGSLRLSCAASGRIFAYNSMGWYRQAPGKERELVAAISWSGSSTYYADSVKGRFTISRDNAKNTVYLHMNCLKPEDTAVYYCAATPWYYYSTSYAYYYWGQGTQVTVSS
polyreactivity (PSR sort gate): high polyreactivity

QVQLVESGGGLVQAGGSLRLSCAASGSTFDDYAMGWYRQAPGKERELVAAIYWSSGRTYYADSVKGRFTISRDNAKNTVYLQMNSLKPEDTAVYYCAARNRYDRLRYYYWGQGTQVTVSS
polyreactivity (PSR sort gate): high polyreactivity

QVQLVESGGGLVQAGGSLRLSCAASGFIFYPYAMAWYRQAPGKERELVAVITSGGRTYYADSVKGRFTISRDNAKNTVYLQMNSLKPEDTAVYYCAARYGRIHWKANWPEYGYWGQGTQVTVSS
polyreactivity (PSR sort gate): low polyreactivity

QVQLVESGGGLVQAGGSLRLSCAASGSIFPYYAMGWYRQAPGKERELVATISNSGGSTYYADSVKGRFTISRDNAKNTVYLQMNSLKPEDTAVYYCAADRGSYPYTGDYWGQGTQVNVSS
polyreactivity (PSR sort gate): low polyreactivity

QDQLVESGGGLVQAGGSLRLSCAASGSISYYAMGWYRQAPGKERELVAAISSSGGSTYYADSVKGRFTISRDNAKNTVYLQMNSLKPEDTAVYYCAARYYGFPSKYDYWGQGTQVTVSS
polyreactivity (PSR sort gate): high polyreactivity

QVQLGESGGGLVQAGGSLRLICAASGLTFSYNDMGWYRQAPGKERELVAGITSNGGSTYYADSVKGRFTITRDNAKNTVYLQMNSLNPEDTAVYYCAAEQYVGVKPFLSDSWGQGNQVTVSS
polyreactivity (PSR sort gate): low polyreactivity

QVQLVESGGGLVQAGGSLRLSCAASGIIFHFNDMGWYRQAPGKERELVAAITSGGSTNYADSVKGRFTLSRDYAKKTVYLQMNSLKPEDTAVYYCNAEPPRGYTVSSGGEMDYWGQGTQVTVSS
polyreactivity (PSR sort gate): low polyreactivity

QVQLVESGGGLVQAGGSLRLSCPASGHIFDYNALGWYRQAPGKERELVAAITSGGTTTYADSVKGRFTISRDNAKHTVYLQMNSLKPEDTAVYYCARKRYFGGWSRYGYGYWGQGTQVTVSS
polyreactivity (PSR sort gate): high polyreactivity

QVQHVESGGGLVQAGGSLRLSCAASGSTLGGYAMGWYRQAPGKERELVAAIRWRDGRTYYADSVKGRFTISRDNPKNTVYLQMNSLKPEDTAVYYCAAQYYLARVSFDYWGQGTQVTVSS
polyreactivity (PSR sort gate): high polyreactivity

QGQLVESGGGLVQAGGSLRLSCAASGITFYYYAMGWYRQAPGKERELVAAINWSGTSTYYADSVKGRFTISRDNAKNTVYLQMNSLKPEDTAVYYCNAERGRSFWWAYDYWGQGTQVTVSS
polyreactivity (PSR sort gate): low polyreactivity

QVQLVESGGGLVQAGGSLRLSCAASGSIFTIYAMGWYRQAPGKERELVAAISFSGGSTYYADSVKGRFTISRDNAKNSVYLQMNSLKPEDTAVYYCAADGGFTYDYWGQGTQVTVSS
polyreactivity (PSR sort gate): low polyreactivity

QVQLVESWGGLVQAGGSLRLSCAASGFTFDNYPMGWYRQAPGKERELVAAIINSGGSTYYADSVKGRFTISRDNAKNTVYLQMNSLKPEDTAVYYCAARILPFRQWYRTYEYWGQGTQVTVSS
polyreactivity (PSR sort gate): high polyreactivity

QVQLVESVGGLVQAGGSLRLSCAASGRTFVYNAMGWYRQAPGKEREFVGAISDGGGDTYYADSVKGRFTISRDNAKNTVFLQMNSLKPEVTAVYYCNVEWQQPGYAFDYCGQGTQVTVSS
polyreactivity (PSR sort gate): low polyreactivity

QVQLVESGGGLVQAGGSLRLSCAASGFTFYWYTMGWNRQAPGKERELVAAISRRGGSTSYADSVKGRFTISRDNAKNTVYLQMNSLKPEDTAVYYCAKTPGWTDYDYWGQGTQVTVSS
polyreactivity (PSR sort gate): high polyreactivity

QVQLVESGGGLVQAGGSLRLSCAASGSILYRYTMGWYIQAPGKERELVAAITKRGGRTYYADSVKGRFTISRDTAKNTVYLQMNSLKREDTAVYYCAAKYYTGGSFEMYYWGQGTQVTVSS
polyreactivity (PSR sort gate): high polyreactivity

QVQLVESGGGLVQAGGSLRLSCAASGSTFPRNAMGWYRQAAGKERELVAAISGRGVRTYYADSVKGRFTISRDNAKNTVYLQMNSLKPEDTAVHYCAAERQPYRTSSYNYWGQGTQVTVSS
polyreactivity (PSR sort gate): high polyreactivity

QVQLVESGGGLVQAGGSLRLSCAASGRTFCSNAMGWYRPAPGKERELVAAISNGDNTYYADSVKGRFTISRDNAKNTVYLQMNSLKPEDTAVYYCNADYTVYDTEYDYWGQGTQVTVSS
polyreactivity (PSR sort gate): low polyreactivity

QVQLVESGGGLVQAGGSLRLSCAASGFTFDQYAMGWYRQAPGKEREFVAAINQSTGSTYYADSVKGRFTISRDNAKNTVYLQMISLKPEDTAVYYCAAEESSTSSEYDYWGQGTQVTVSS
polyreactivity (PSR sort gate): low polyreactivity

QVQLVESGRGLVQAGGSLSLSCAASGSILYIYAMVWNIQAPGKERELVDSINSGGSTNYADSVKGRFTISRDNAKNTVYLEMNSLIPEDTAVYYCAKSIGNPPQGFKDFDYWGQGTLVTVSS
polyreactivity (PSR sort gate): low polyreactivity

QVQLVESGGGLVQAGGSLRLSCAASGFTLAYYAMGWYRQAPGKERELVATISRRGGSTNYADSVKGRFTISRDNAKNTVYLQMNSLKPVDTAVYYCARTLYRGKSYHGHSKYDYWGQGTQVTVSS
polyreactivity (PSR sort gate): high polyreactivity

QVQLVESGGGLVQAGGSLRLSCAASGRIFGYYAIGWYRQAPGKERELVAAITINGGRTYYADSVKGRFTISRDNAKNTVYLQMNSLKPEDTAVYYCTATSRYNRLGYWGQGTQVTVSS
polyreactivity (PSR sort gate): high polyreactivity

QVQLVESGGGLVQAGGSLRLSCASSGHIFTRNAMGWYIQAPGKERELVAAISRTGGSTYYADSVKGRFTISRDNAKNTVYLQMNSLKPEDTAVYYCNARGTYTSRRGYDYWGQGTQVTVSS
polyreactivity (PSR sort gate): high polyreactivity

QVQLVESGGGLVQAGGSLRLSCAASGLTFWEYAMGWYRQAPGQERELVAAITRGGNTYYADSVKGRFTISRDNAKNTVSLQMNSLKPEDTAVYYCAARGYYLTGGCRRYYYWGQGTQVTVSS
polyreactivity (PSR sort gate): high polyreactivity

QVQLVESGGGLVQAGGSLRLSCAASGFIFWLYAMGWYRQAPGKERELVAAISRSGGRTYYADSVKGRFTISRDNAKNTVYLQMNSLKPEDTAVYYCAKDDNYKSYPYDYWGQGTQVTVSS
polyreactivity (PSR sort gate): high polyreactivity

QVQLVESGGGLVQAGGSLRLSCAASGFIFYRYAMGWYRQAPGKERELVAAINWSGGGTYYADSVKGRFTISRDNAKNTVYLQMNSLKPEDTAVYYCAAGRSFRGSYWYEYWGQGTQVTVSS
polyreactivity (PSR sort gate): high polyreactivity

QVQLVESGGGLLQAGGSLRLSCAASGRIFRGYAMGWYRQAPGKESELVAGITSGGSTKYADSVKGRFTISRDNAKNTVYLQMNSLKPEDTAVYYCAKGYLPYSYYARPYIRYYWGQGTQVTVSS
polyreactivity (PSR sort gate): high polyreactivity

QVQLVESGGGLVQAGGSLRLSCAASGSIFPAYAMGWYRQAPGKEREFVAAISGTGGITYYADSVKGRFTISRDNAKNTVYLQMNSLKPEDTEVYYCAAPVYNRYYYWGQGTQVTVSS
polyreactivity (PSR sort gate): low polyreactivity

QVQLVESGGGLVQAGGSLRLSCAASGSIFYYYTMGWYRQSPGKERELVAAIRWSSGTTYYADSVKGRFTISRDKAKNTVYLQINSLKPEDTAVYYCAAGGHARTWYAYYYWGQGTQVTVSS
polyreactivity (PSR sort gate): low polyreactivity

QVQLVESGGGLVQAGGSLRLSCAASGSTLQVYARGWYRQAPGKERELVAASSKSGGRTYYADSVKGRFTISRDNAKNTVYLQMNSLKPEDTAVYYCAADVGTAQSTYGYWGQGTQVTVSS
polyreactivity (PSR sort gate): high polyreactivity

QVQLVESGGGLVQAGGSLRLSCAASGRIFVVYAMGWYRQAPGKERELVAAITSSGNTNYADSVKGRFTISRDNAKNTVYLQMNSLKPEDTAVYYCAATRDYSSDYWGQGTEVTVSS
polyreactivity (PSR sort gate): low polyreactivity

QVQLEESGGGLVQAGGSLRLSCAASGSIIRYNAMGWYRQAPGKERELVAAISASGGRTHYADSVKGRFTISRDNAKNTVYLQMNSLKPEYTAVYYCAASTYRVTSLYGYWGQGTQVTVSS
polyreactivity (PSR sort gate): high polyreactivity

HFQLVESGGGLVQAGGSLRLSCAASGFTFNDMGWYRLATGKERELVARIDSDDTTNYADSVKGRFTISRDNAKKTVYVLMNSLKPEDTAVYYCNKDYAWLSYQDYDYWGQGTQVTVSS
polyreactivity (PSR sort gate): low polyreactivity

QVLLQESGGGLVLAGGSLRLGCAASGTISPAYYMGRYHQAPGKEREFVAAITYGTNTYYADSVKGRFTISRDNAKYTVYLQMHSLKPEDTAVYYCSATAGYNGAHDYWGQGTQVTVSS
polyreactivity (PSR sort gate): low polyreactivity

QVQLVESGGGLVQAGGSLRLSCAASGGTFWSYAMGCYRQAPGKEREFVAAITTSAGRTNYADSVKGRFTISRDNAKNTVYLQMNSLKPEDTAVYYCAARSAYPGLGYGFDYWGQGTQVTVSS
polyreactivity (PSR sort gate): low polyreactivity

QVQLVESGGGLVQAGGSLRLSCAASGFTFKRYAMGWYRQARGKERELVAAISWSGSSTYYADSVKGRFTISRDNAKNTVYLQMNSLKPEDTAVYYCAARSFRPAYDYWGQGTQVTVSS
polyreactivity (PSR sort gate): high polyreactivity

QVQLVESGGGLVQAGGSLRLSCAASGFTFNDNDMGWYRQAPGKEWELVAAITYGGSTYYADSVKGRFTISRENAKNTVYLQMNSLKPEDTAVYYCNVEFFFWPYEYGYWGQGTQVNVSS
polyreactivity (PSR sort gate): low polyreactivity

QVQLVESGGGLVQAGGSLRISCAASGRIFRGYAMGWYRQAPGKEMELVAGITTSGGDTSYADSVKGRFTISRDNAKNTVYLQMNSLKPEDTAVYYCNASPFYYRPRYPMDYWGQGTQVTVSS
polyreactivity (PSR sort gate): high polyreactivity

QVQLVESGGGLVQAGRSLRLSCAASGRTFPYNAMGWYRQAPGKERELVAAITWSGGSTYYADSVKGRFTISRDNAKNTVYLQMNSLKAEDTAVYYCNKDFPVFEYDYWGQGTQVTVSS
polyreactivity (PSR sort gate): low polyreactivity
